Source: paper PMC5940873, “NADH/NADPH bi-cofactor-utilizing and thermoactive ketol-acid reductoisomerase from Sulfolobus acidocaldarius” (Scientific Reports, 2018)

Tests used:
Assay in all cases: purified protein
Assay type in all cases: biochemical, Sulfolobus acidocaldarius
purified protein [1] = substrate: NC(=O)C1=CN([C@@H]2O[C@H](COP(=O)(O)OP(=O)(O)OC[C@H]3O[C@@H](n4cnc5c(N)ncnc54)[C@H](OP(=O)(O)O)[C@@H]3O)[C@@H](O)[C@H]2O)C=CC1; details: 5 mM 2S-AL (saturating), 10 mM MgSO4, 100 mM phosphate pH 8.0, 25 °C, varied: cofactor
purified protein [2] = substrate: NC(=O)C1=CN([C@@H]2O[C@H](COP(=O)(O)OP(=O)(O)OC[C@H]3O[C@@H](n4cnc5c(N)ncnc54)[C@H](O)[C@@H]3O)[C@@H](O)[C@H]2O)C=CC1; details: 5 mM 2S-AL (saturating), 10 mM MgSO4, 100 mM phosphate pH 8.0, 25 °C, varied: cofactor
purified protein [3] = substrate: CC(=O)[C@](C)(O)C(=O)O; details: 0.22 mM NADPH, 10 mM MgSO4, 100 mM phosphate pH 8.0, 25 °C, racemic 2-acetolactate used, concentration counted as the S enantiomer

B1: Sac-KARI (Sulfolobus acidocaldarius DSM 639) (protein)
chain: MAKIYTDKDVSLDVIKEKRVAVLGYGSQGRAWALNLRDSGIKVSVGLEREGNSWKQAENDGFKPLRTEEAVRNSDIIIFLLPDMIQRTVYLERVKPYLKEGMDLVFAHGFNIHYRLIEPPSNVDVYMIAPKAPGPIVREYFAKGGGVPALVATYQDHSGKALQKALAVAKAIGATRAGVIETTFKEETETDLFGEQVDLVGGVMQLMRYAFQTLVEAGYQPEVAYFETINEMKLIVDLVYEKGFSGMLTAVSDTAKYGGMTVGKMVIDESVKERMKKALDNIRSGKFAEKWVEEYGKGANTIKEGMKEVDNSTEEKVGRSLRDIILRGKPKS
notes: pET-21a NdeI/XhoI, His-tag retained; E. coli BL21(DE3); heat step, Ni-NTA, gel filtration; homodimer ~70 kDa (theoretical ~74 kDa); beta2-alphaB loop LEREGNS; R49, S53, D191, E195, E227, E231
Purified protein [1]
  Km: 0.4 ± 0.2 µM
  kcat: 0.064 ± 0.001 s⁻¹
  kcat/Km: 186000 ± 80500 M⁻¹ s⁻¹
Purified protein [2]
  Km: 6.0 ± 0.8 µM
  kcat: 0.056 ± 0.001 s⁻¹
  kcat/Km: 9500 ± 1300 M⁻¹ s⁻¹
Purified protein [3]
  Km: 140 ± 6 µM
  kcat: 0.068 ± 0.001 s⁻¹
  kcat/Km: 490 ± 20 M⁻¹ s⁻¹
